Molecular target: NHE1-ECL1-rIgG, the first extracellular loop of the ALV-J receptor NHE1 fused to rabbit IgG Fc (expressed in DF-1 cells) (chicken)

“Env protein (envelope glycoprotein, gp85-gp37) of ALV-J strain TBC-J6, wild type (natural protein)” showed a reduction of ALV-J infection (p27 mRNA level by qPCR) of DF-1 cells transfected with 250 ng pCAGGS-env(wt) for 2 days; the receptor is the endogenous NHE1 of DF-1 cells of 91%.

Source: PMC8865534
